The source of these data is publication PMC1636458 (Nucleic Acids Research, 2006).

In series [1] the target is T1, TBPm3 (altered specificity TATA-binding protein mutant) (UniProt P13393 1-240, I194F;V203T;L205V).
T1 sequence: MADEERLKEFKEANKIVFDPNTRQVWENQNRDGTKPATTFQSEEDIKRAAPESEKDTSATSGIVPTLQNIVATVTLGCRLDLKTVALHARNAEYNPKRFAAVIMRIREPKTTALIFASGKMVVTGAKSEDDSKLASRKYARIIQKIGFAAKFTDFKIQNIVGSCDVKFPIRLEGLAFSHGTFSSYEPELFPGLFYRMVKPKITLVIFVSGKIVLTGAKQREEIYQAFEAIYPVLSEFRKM
The experiment in a line: MPE-Fe.

The target in series [2] is T2, Brf1 (TFIIB-related factor, subunit of TFIIIB) (S. cerevisiae, UniProt P29056 1-596).
T2 sequence (looked up): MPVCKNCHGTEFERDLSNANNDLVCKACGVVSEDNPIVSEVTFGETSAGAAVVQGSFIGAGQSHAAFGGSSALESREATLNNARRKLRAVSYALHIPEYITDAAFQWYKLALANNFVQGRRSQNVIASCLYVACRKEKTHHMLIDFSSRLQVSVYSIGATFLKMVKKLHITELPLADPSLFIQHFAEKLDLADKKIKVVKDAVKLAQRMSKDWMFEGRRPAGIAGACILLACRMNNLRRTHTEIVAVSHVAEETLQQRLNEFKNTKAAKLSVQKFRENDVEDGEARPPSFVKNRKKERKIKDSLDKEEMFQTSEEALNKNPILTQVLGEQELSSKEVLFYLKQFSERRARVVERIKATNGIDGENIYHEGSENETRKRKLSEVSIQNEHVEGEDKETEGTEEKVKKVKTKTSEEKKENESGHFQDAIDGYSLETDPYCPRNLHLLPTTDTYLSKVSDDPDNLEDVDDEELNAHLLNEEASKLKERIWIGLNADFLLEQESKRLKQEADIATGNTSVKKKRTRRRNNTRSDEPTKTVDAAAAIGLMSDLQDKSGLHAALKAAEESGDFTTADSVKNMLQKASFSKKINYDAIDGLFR
The experiment in a line: native gel or EMSA. (In general: A gel shift assay detects complexes by their altered migration in electrophoresis.)

The target in series [3] is T1, TBPm3 (altered specificity TATA-binding …). The experiment in a line: EMSA kinetics.
For series [4] the target is unchanged. The experiment in a line: EMSA kinetics. The source holds these as a separate data set.

Where two headings read alike, the source gives them in different places.

B1: 76 bp DNA with favored sequence TGTAAATTG (dsDNA)
DNA 1: CGCTGCAATCTCTTTTTCAATTGCTCCGGACTGTAAATTGGCGGTCCCTTACTCTTTCCTCAACAATTAACGGCCC
DNA 2: GGGCCGTTAATTGTTGAGGAAAGAGTAAGGGACCGCCAATTTACAGTCCGGAGCAATTGAAAAAGAGATTGCAGCG
As for B1, in series [1], the binding result is “binds”.

B2: TBPm3 (altered specificity TATA-binding protein mutant) (natural protein, S. cerevisiae, UniProt P13393 1-240, looked up)
chain: MADEERLKEFKEANKIVFDPNTRQVWENQNRDGTKPATTFQSEEDIKRAAPESEKDTSATSGIVPTLQNIVATVTLGCRLDLKTVALHARNAEYNPKRFAAVIMRIREPKTTALIFASGKMVVTGAKSEDDSKLASRKYARIIQKIGFAAKFTDFKIQNIVGSCDVKFPIRLEGLAFSHGTFSSYEPELFPGLFYRMVKPKITLVIFVSGKIVLTGAKQREEIYQAFEAIYPVLSEFRKM
In the case of B2, the binding result in series [2] was “binds”.

B3: TGTA probe, 26 bp (dsDNA)
DNA 1: CGTGACTACTGTAAATAGATGATCCG
DNA 2: CGGATCATCTATTTACAGTAGTCACG
One may read the Kd as the equilibrium constant for the complex coming apart. In series [3], B3 yielded a Kd of 0.6 nM.

B4: TATA probe (U6 TATA box), 26 bp (dsDNA)
DNA 1: CGTGACTACTATAAATAGATGATCCG
DNA 2: CGGATCATCTATTTATAGTAGTCACG
Molecule B4 returned a Kd in series [4] of 0.3 nM.
